{
  "source": "the RNAGym collection of RNA variant scans (doi:10.1093/molbev/msab373)",
  "parents": {"B1": {"name": "Azoarcus group I ribozyme (parent)", "chain": "GUGCCUUGCGCCGGGAAACCACGCAAGGGAUGGUGUCAAAUUCGGCGAAACCUAAGCGCCCGCCCGGGCGUAUGGCAACGCCGAGCCAAGCUUCGGCGCCUGCGCCGAUGAAGGUGUAGAGACUAGACGGCACCCACCUAAGGCAAACGCUAUGGUGAAGGCAUAGUCCAGGGAGUGGCGAAAGUCACACAAACCGG"}},
  "data": [
    {"variants_of": "B1", "test": "reverse-splicing fitness (ratio to wild type); higher = more active; in vitro selection; Mg2+ level not given", "how_it_was_run": "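An in vitro group I ribozyme library with randomized positions was T7-transcribed and gel-purified. In triplicate, 10 pmol RNA in EPPS pH 7.5 was reacted with 50 pmoles of a 30-nt RNA substrate for 1 h at 37 °C across several added MgCl2 levels (1–48 mM), then stopped with EDTA. Products were reverse transcribed from a substrate-complementary primer, PCR-amplified and sequenced (HiSeq 4000). Fitness is a variant's read proportion after selection over that before, normalised to wild type.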", "values": [
      {"variant": "C82A A111G A120C A145U C150A C169A U176A", "reverse-splicing fitness": 0.0196},
      {"variant": "C82A A111G A120C A145U C150A C169A U176G", "reverse-splicing fitness": 0.00712},
      {"variant": "C82A A111G A120C A145U C150A C169A U176C", "reverse-splicing fitness": 0.0134},
      {"variant": "C82A A111G A120C A145G C150U C169G U176C", "reverse-splicing fitness": 0.0192},
      {"variant": "C82A A111G A120C A145G C150U C169G U176G", "reverse-splicing fitness": 0.00629},
      {"variant": "C82A A111G A120C A145G C150U C169G U176A", "reverse-splicing fitness": 0.0161},
      {"variant": "C82A A111C A145U C150U C169G", "reverse-splicing fitness": 0.00899},
      {"variant": "C82A A111C A145U C150U C169A", "reverse-splicing fitness": 0.00867},
      {"variant": "C82A A111C A145U C150U C169U", "reverse-splicing fitness": 0.0128},
      {"variant": "C82A A111C C150U", "reverse-splicing fitness": 0.113},
      {"variant": "C82A A111C C150G", "reverse-splicing fitness": 0.016},
      {"variant": "C82A A111C C150A", "reverse-splicing fitness": 0.0239},
      {"variant": "C82A A111C A145G C150U C169G U176A", "reverse-splicing fitness": 0.0115},
      {"variant": "C82A A111C A145G C150U C169G U176C", "reverse-splicing fitness": 0.0162},
      {"variant": "C82A A111C A145G C150U C169G U176G", "reverse-splicing fitness": 0.00687},
      {"variant": "C82A A111C A145G C169G U176C", "reverse-splicing fitness": 0.0335},
      {"variant": "C82A A111C A145G C169G U176A", "reverse-splicing fitness": 0.0221},
      {"variant": "C82A A111C A145G C169G U176G", "reverse-splicing fitness": 0.00836},
      {"variant": "C82A A111G A120C A145G C150A C169G U176G", "reverse-splicing fitness": 0.00711},
      {"variant": "C82A A111G A120C A145G C150A C169G U176A", "reverse-splicing fitness": 0.0211},
      {"variant": "C82A A111G A120C A145G C150A C169G U176C", "reverse-splicing fitness": 0.0242},
      {"variant": "C82A A111G A120C A145U C150A C169U", "reverse-splicing fitness": 0.00961},
      {"variant": "C82A A111G A120C A145U C150A C169A", "reverse-splicing fitness": 0.0111},
      {"variant": "C82A A111G A120C A145U C150A C169G", "reverse-splicing fitness": 0.00948},
      {"variant": "C82A A111C A145U C150G C169A", "reverse-splicing fitness": 0.0091},
      {"variant": "C82A A111C A145U C150G C169G", "reverse-splicing fitness": 0.00748},
      {"variant": "C82A A111C A145U C150G C169U", "reverse-splicing fitness": 0.00887},
      {"variant": "C82A A111C C150U C169G", "reverse-splicing fitness": 0.00783},
      {"variant": "C82A A111C C150U C169A", "reverse-splicing fitness": 0.0115},
      {"variant": "C82A A111C C150U C169U", "reverse-splicing fitness": 0.0128},
      {"variant": "C82A A111C A145U C150U C169G U176G", "reverse-splicing fitness": 0.00855},
      {"variant": "C82A A111C A145U C150U C169G U176C", "reverse-splicing fitness": 0.0179},
      {"variant": "C82A A111C A145U C150U C169G U176A", "reverse-splicing fitness": 0.0143},
      {"variant": "C82A A111C A145U C150A C169U U176A", "reverse-splicing fitness": 0.0155},
      {"variant": "C82A A111C A145U C150A C169U U176G", "reverse-splicing fitness": 0.00853},
      {"variant": "C82A A111C A145U C150A C169U U176C", "reverse-splicing fitness": 0.0167},
      {"variant": "C82A A111G A120C A145U C150U C169G U176A", "reverse-splicing fitness": 0.0145},
      {"variant": "C82A A111G A120C A145U C150U C169G U176C", "reverse-splicing fitness": 0.0191},
      {"variant": "C82A A111G A120C A145U C150U C169G U176G", "reverse-splicing fitness": 0.00539},
      {"variant": "C82A A111G A120C A145U C150A C169U U176A", "reverse-splicing fitness": 0.0152},
      {"variant": "C82A A111G A120C A145U C150A C169U U176G", "reverse-splicing fitness": 0.00664},
      {"variant": "C82A A111G A120C A145U C150A C169U U176C", "reverse-splicing fitness": 0.0123},
      {"variant": "C82A A111C A145U", "reverse-splicing fitness": 0.229},
      {"variant": "C82A A111G A120C A145C C150G C169U U176C", "reverse-splicing fitness": 0.00986},
      {"variant": "C82A A111G A120C A145C C150G C169U U176A", "reverse-splicing fitness": 0.00566},
      {"variant": "C82A A111G A120C A145C C150G C169U U176G", "reverse-splicing fitness": 0.00527},
      {"variant": "C82A A111G A120C A145C C150U C169A U176C", "reverse-splicing fitness": 0.00983},
      {"variant": "C82A A111G A120C A145C C150U C169A U176A", "reverse-splicing fitness": 0.0199},
      {"variant": "C82A A111G A120C A145C C150U C169A U176G", "reverse-splicing fitness": 0.00704},
      {"variant": "C82A A111C C150G C169G", "reverse-splicing fitness": 0.00723},
      {"variant": "C82A A111C C150G C169U", "reverse-splicing fitness": 0.00907},
      {"variant": "C82A A111C C150G C169A", "reverse-splicing fitness": 0.00766},
      {"variant": "C82A A111G A120C A145C C150A C169G U176C", "reverse-splicing fitness": 0.025},
      {"variant": "C82A A111G A120C A145C C150A C169G U176G", "reverse-splicing fitness": 0.00763},
      {"variant": "C82A A111G A120C A145C C150A C169G U176A", "reverse-splicing fitness": 0.0288},
      {"variant": "C82A A111C A145G C150U C169A U176C", "reverse-splicing fitness": 0.0148},
      {"variant": "C82A A111C A145G C150U C169A U176A", "reverse-splicing fitness": 0.0141},
      {"variant": "C82A A111C A145G C150U C169A U176G", "reverse-splicing fitness": 0.00833},
      {"variant": "C82A A111G", "reverse-splicing fitness": 0.435},
      {"variant": "C82A A111G A120C", "reverse-splicing fitness": 0.0449},
      {"variant": "C82A A111C A145U C150A U176C", "reverse-splicing fitness": 0.0205},
      {"variant": "C82A A111C A145U C150A U176G", "reverse-splicing fitness": 0.00868},
      {"variant": "C82A A111C A145U C150A U176A", "reverse-splicing fitness": 0.0127},
      {"variant": "C82A A111G A120C A145G C150U C169G", "reverse-splicing fitness": 0.0101},
      {"variant": "C82A A111G A120C A145G C150U C169A", "reverse-splicing fitness": 0.012},
      {"variant": "C82A A111G A120C A145G C150U C169U", "reverse-splicing fitness": 0.0147},
      {"variant": "C82A A111C A145G C150U C169U U176C", "reverse-splicing fitness": 0.0143},
      {"variant": "C82A A111C A145G C150U C169U U176A", "reverse-splicing fitness": 0.0138},
      {"variant": "C82A A111C A145G C150U C169U U176G", "reverse-splicing fitness": 0.00766},
      {"variant": "C82A A111G A120C A145G U176A", "reverse-splicing fitness": 0.0183},
      {"variant": "C82A A111G A120C A145G U176G", "reverse-splicing fitness": 0.00889},
      {"variant": "C82A A111G A120C A145G U176C", "reverse-splicing fitness": 0.0327},
      {"variant": "C82A A111C A145G C150U C169U", "reverse-splicing fitness": 0.0119},
      {"variant": "C82A A111C A145G C150U C169A", "reverse-splicing fitness": 0.0103},
      {"variant": "C82A A111C A145G C150U C169G", "reverse-splicing fitness": 0.00915},
      {"variant": "C82A A111G A120C A145C C150A U176G", "reverse-splicing fitness": 0.00529},
      {"variant": "C82A A111G A120C A145C C150A U176A", "reverse-splicing fitness": 0.0102},
      {"variant": "C82A A111G A120C A145C C150A U176C", "reverse-splicing fitness": 0.0151},
      {"variant": "C82A A111G A120C A145G C150G C169G", "reverse-splicing fitness": 0.00734},
      {"variant": "C82A A111G A120C A145G C150G C169A", "reverse-splicing fitness": 0.00974},
      {"variant": "C82A A111G A120C A145G C150G C169U", "reverse-splicing fitness": 0.00967},
      {"variant": "C82A A111C A145G C150U U176C", "reverse-splicing fitness": 0.086},
      {"variant": "C82A A111C A145G C150U U176G", "reverse-splicing fitness": 0.0141}
    ]}
  ]
}
